# Like-named read-outs stand apart in the source and are kept apart here.
# What was measured:
# [1] = molecular target: T1, mutant yeast PheRS with mutations in N412G, S418C, T415G and S437F (Saccharomyces cerevisiae, UniProt P15625, N412G/S418C/S437F/T415G); assay: yeast PheRS library GFP/FACS screening, incorporation at UUU codon; assay type: cell-based; details: mutant yPheRS N412G, S437F after two cycles of screening
# T1 construct: expressed in transfected cells; host or cells: E. coli AFW and DHF cells carrying pQE9_GFP6/GFP9_yPheRS library plasmids
# Description: For example, in one embodiment, a yeast PheRS library is subjected to double sieve screening in order to detect high levels of incorporation of a non-natural amino acid or misincorporation of natural amino acids other than Phe will lead to severe misfolding or unfolding of GFP. The yeast PheRS library cells are thus subjected to high-throughput screening based on flow cytommetry analysis (FACS). First, the yeast PheRS library cells are expressed in the presence of 2NaI and low fluorescent cells indicating higher incorporation of either 2NaI or other natural amino acids are collected by FACS. Next, the yeast PheRS library cells are expressed without 2NaI. Bright cells are collected in order to eliminate yeast PheRS variants that can misincorporate other natural amino acids.
# Library construction was performed in two steps as well. […]
# The library was transformed into chemical-competent AFW and DHF E. coli cells. […] Glycerol stocks of the library were expressed as is standard in the art.
# After expression of GFP for 3 hours, 1 mL of cells (based on OD600 of 1.0) were washed with PBS and diluted in distilled water, then subjected to flow cytometric analysis (MoFlo cell Sorter®, DakoCytomation, Fort Collins, Colo.), using an excitation wavelength of 488 nm, emission of 525 nm, and a cut-off filter of 495 nm. […] Data were analyzed with Summit software (DakoCytomation). […]
# [2] = molecular target: mu-yPheRS (Thr415Gly or Thr415Ala mutation in the α-subunit) (Saccharomyces cerevisiae, UniProt P15625, T415G); assay: adenosine triphosphate-pyrophosphate exchange assay, activation of NaI and Phe by mu-yPheRS; assay type: biochemical
# Chain of mu-yPheRS (Thr415Gly or Thr415Ala mutation in the α-subunit) (P15625 2-503 T415G): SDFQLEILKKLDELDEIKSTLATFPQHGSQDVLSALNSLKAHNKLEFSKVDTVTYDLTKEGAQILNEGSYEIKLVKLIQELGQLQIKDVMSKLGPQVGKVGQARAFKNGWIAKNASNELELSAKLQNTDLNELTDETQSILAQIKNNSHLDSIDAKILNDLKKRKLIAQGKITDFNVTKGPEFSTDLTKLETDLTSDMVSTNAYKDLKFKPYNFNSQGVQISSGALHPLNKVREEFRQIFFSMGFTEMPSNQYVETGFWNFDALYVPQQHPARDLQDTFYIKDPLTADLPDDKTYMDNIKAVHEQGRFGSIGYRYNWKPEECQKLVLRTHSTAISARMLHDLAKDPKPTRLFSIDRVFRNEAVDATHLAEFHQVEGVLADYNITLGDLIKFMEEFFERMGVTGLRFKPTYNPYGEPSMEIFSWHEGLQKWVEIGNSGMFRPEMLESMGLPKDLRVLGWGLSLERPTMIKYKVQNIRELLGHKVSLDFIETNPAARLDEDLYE
# Chain of mu-yPheRS (Thr415Gly or Thr415Ala mutation in the α-subunit) (P15624 2-595, further chain): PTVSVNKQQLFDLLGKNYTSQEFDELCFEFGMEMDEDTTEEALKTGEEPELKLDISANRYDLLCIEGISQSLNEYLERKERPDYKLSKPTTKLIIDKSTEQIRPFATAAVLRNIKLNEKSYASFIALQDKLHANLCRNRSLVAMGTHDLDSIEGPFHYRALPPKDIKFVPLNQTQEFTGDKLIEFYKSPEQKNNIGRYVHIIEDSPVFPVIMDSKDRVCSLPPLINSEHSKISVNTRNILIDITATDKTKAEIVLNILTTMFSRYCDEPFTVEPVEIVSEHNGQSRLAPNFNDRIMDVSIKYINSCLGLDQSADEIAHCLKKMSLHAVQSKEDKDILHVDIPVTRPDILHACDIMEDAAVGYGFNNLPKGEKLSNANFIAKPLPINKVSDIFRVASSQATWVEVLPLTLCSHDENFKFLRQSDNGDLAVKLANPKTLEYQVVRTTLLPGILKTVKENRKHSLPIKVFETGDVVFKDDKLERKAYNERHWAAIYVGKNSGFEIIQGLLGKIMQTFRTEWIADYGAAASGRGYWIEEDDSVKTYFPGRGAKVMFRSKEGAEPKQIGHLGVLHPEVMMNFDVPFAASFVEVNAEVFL
# Description: The modified yeast PheRS (mu-yPheRS) was prepared by introduction of a Thr415Gly or Thr415Ala mutation in the α-subunit of the synthetase (Datta et al., J. Am. Chem. Soc. 124: 5652, 2002). The kinetics of activation of NaI and Phe by mu-yPheRS were analyzed in vitro via the adenosine triphosphate-pyrophosphate exchange assay. […] In addition, the T415G mutant was generated by four-primer mutagenesis.
# Escherichia coli = details: E. coli cells, cited from earlier work
# [3] = molecular target: (T415A) yeast phenylalanine aminoacyl tRNA synthetase (PheRS) (Saccharomyces cerevisiae, UniProt P15625, T415A); assay type: biochemical
# Chain of (T415A) yeast phenylalanine aminoacyl tRNA synthetase (PheRS) (P15624 whole entry): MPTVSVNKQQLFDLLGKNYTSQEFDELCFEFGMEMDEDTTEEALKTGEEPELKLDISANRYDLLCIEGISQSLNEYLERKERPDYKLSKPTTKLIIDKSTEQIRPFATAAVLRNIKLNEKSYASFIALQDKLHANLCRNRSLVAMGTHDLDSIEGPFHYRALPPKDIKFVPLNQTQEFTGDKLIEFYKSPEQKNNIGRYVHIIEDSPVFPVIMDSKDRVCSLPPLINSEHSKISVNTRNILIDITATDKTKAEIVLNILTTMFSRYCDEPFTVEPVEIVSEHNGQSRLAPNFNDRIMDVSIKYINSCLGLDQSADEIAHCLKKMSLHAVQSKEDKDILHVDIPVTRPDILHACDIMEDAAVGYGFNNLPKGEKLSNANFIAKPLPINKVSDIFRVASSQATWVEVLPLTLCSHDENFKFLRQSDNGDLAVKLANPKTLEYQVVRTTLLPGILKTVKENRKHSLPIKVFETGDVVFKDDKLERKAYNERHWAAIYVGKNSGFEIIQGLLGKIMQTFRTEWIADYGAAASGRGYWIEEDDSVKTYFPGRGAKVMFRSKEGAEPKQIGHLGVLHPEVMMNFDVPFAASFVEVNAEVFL
# Chain of (T415A) yeast phenylalanine aminoacyl tRNA synthetase (PheRS) (P15625 whole entry T415A): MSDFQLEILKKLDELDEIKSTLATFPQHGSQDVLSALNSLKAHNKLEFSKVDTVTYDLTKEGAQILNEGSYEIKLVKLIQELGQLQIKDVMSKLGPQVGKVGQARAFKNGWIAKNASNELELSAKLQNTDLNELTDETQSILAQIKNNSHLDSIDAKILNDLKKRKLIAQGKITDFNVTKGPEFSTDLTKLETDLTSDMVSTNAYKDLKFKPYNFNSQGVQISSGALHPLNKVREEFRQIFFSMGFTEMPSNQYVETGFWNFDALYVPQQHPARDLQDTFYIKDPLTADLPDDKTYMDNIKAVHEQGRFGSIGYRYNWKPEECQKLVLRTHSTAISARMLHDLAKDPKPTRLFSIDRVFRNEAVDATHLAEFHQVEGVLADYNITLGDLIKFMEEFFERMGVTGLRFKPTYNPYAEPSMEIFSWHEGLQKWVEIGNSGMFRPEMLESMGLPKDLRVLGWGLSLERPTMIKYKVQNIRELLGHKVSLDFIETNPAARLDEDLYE
# Description: The amino acid-dependent ATP-PP; exchange reaction was used to evaluate the activation of amino acid analogs by yPheRS as described in the above Examples. Briefly, a 200 microliter aliquot of reaction buffer contains 50 mM HEPES (pH 7.6), 20 nM MgCl2, 1 mM DTT, 2 mM ATP, and 2 mM ^32P-pyrophosphate (PPi) with specific activity of 10-50 Ci/mol. Depending on the activity of analogs by the synthetase, the amino acid concentration varied from 10 microM to 2.5 mM and enzyme concentration varied from 10 nM to 100 nM. Aliquots of 20 microliters were removed from the reaction solution at various time points and quenched into 500 microliters of buffer solution containing 200 mN NaPPi, 7% w/v HclO4, and 3% w/v activated charcoal. The charcoal was spun down and washed twice with 500 microliters of 10 mM NaPP; and 0.5% HClO4 solution. The radio-labeled ATP absorbed into the charcoal was quantified via liquid scintillation methods. The specificity constants were calculated by non linear regression fit for the data to a Michaelis Menten model.
# [4] = molecular target: modified yeast PheRS (T415G) and tRNA^Phe with an amber suppressor (Saccharomyces cerevisiae, UniProt P15625, T415G); assay type: cell-based; details: FIG. 13 mass spectra
# Description: A yeast PheRS library (using green fluorescent protein or GFP) was screened to identify PheRS mutations that enable the incorporation of NaI.
# Briefly, GFP was ligated into a vector containing the mutant T415G or wild type yeast PheRS gene according to standard procedures. The mutant yeast amber suppressor tRNA (yRNA^PheAAA) was constitutively expressed under control of Ipp promoter and transformed into a Phe/Trp double E. coli auxotrophic strain AFW. Cells were grown in M9 minimal medium supplemented with glucose, thiamin, MgSO4, CaCl2, 20 amino acids (at 25 mg/L), antibiotics (35 μg/mL of kanamycin and 100 μg/mL of ampicillin). When cells reached an OD600 of 0.8-1.0, cells were pelleted and washed twice by ice-cold 0.9% NaCl and shifted to expression media supplemented with 18 amino acids (at 20 mg/L) and various concentrations of phenylalanine, tryptophan and 2NaI. Protein expression was induced by IPTG.
# [5] = tested on: N[C@@H](Cc1ccc2ccccc2c1)C(=O)O; assay: purified protein, by the assay type; details: pH 7.6
# [6] = tested on: N[C@@H](Cc1c[nH]c2ccccc12)C(=O)O; assay: purified protein, by the assay type; details: pH 7.6
# N[C@@H](Cc1ccccc1)C(=O)O = assay: purified protein, by the assay type; details: pH 7.6
# [7] = substrate: N[C@@H](Cc1ccccc1)C(=O)O; assay: ATP-PPi exchange of amino acids by wild type yPheRS, Example 3; assay type: biochemical, Saccharomyces cerevisiae; details: other: enzyme wild type; pH 7.6
# Description: The amino acid dependent ATP-PP; exchange reaction was used to evaluate the activation of non-natural amino acids by yPheRS. The assay was performed in 200 mincroliters of reaction buffer containing 50 mM HEPES (pH=7.6), 20 mM MgCl2, 1 mM DTT, 2 mM ATP and 2 mM [^32P]-PPi with specific activity of 0.2-0.5 TBq/mol. Depending on the activity of the various non-natural amino acids with the synthetase, the amino acid concentration varied from 10 microM to 5 mM and enzyme concentration varied from 10 nM to 100 nM. Aliquots of 20 microliters were removed from the reaction solution at various time points and quenched into 500 microliters of buffer solution containing 200 mM NaPPi, 7% w/v HClO4 and 3% w/v activated charcoal. The charcoal was spun down and washed twice with 500 microliters of 10 mM NaPPi and 0.5% HclO4 solution. The radio-labeled ATP absorbed into the charcoal was quantified via liquid scintillation methods. The specificity constants were calculated by nonlinear regression fit of the data to a Michaelis Menten model. The kinetic parameters for the ATP-PPi exchange of amino acids by the yPheRS (T415G), wild type yPheRS, and yPheRS_naph variant are shown in the table below.
molecule,measurement,setting,value
"N[C@@H](Cc1ccc2ccccc2c1)C(=O)O [2Nal, 3-(2-naphthyl)alanine]",incorporation at UUU codon,[1],around 90%
same,"specificity constant (kcat/KM), fold larger than that for Phe",[2],8 fold
CC1(C)S[C@@H]2[C@H](NC(=O)[C@H](N)c3ccccc3)C(=O)N2[C@H]1C(=O)O [ampicillin],IC50,Escherichia coli; SctRNAGInCUA coexpressed with ScGInRS,about 500 μg/mL
same,IC50,Escherichia coli; only SctRNAGInCUA expressed,20 µg/mL
"N[C@@H](Cc1ccc(Br)cc1)C(=O)O [bromophenylalanine, p-bromo-phenylalanine]",preference for bromophenylalanine than for naturally occurring phenylalanine,[3],5 fold
C#Cc1ccc(C[C@H](N)C(=O)O)cc1 [p-ethynyl-phenylalanine],incorporation into a test protein,[4],incorporated into a test protein
yPheRS (T415G) (Saccharomyces cerevisiae S288C; T415G),Km,[5]; other: enzyme T415G,7.03 ± 0.14 µM
same,kcat,[5]; other: enzyme T415G,0.208 ± 0.04 s⁻¹
same,kcat/Km,[5]; other: enzyme T415G,29500 ± 5850 M⁻¹ s⁻¹
same,Km,[6]; other: enzyme T415G,2.83 ± 1.6 µM
same,kcat,[6]; other: enzyme T415G,0.153 ± 0.003 s⁻¹
same,kcat/Km,[6]; other: enzyme T415G,63200 ± 34600 M⁻¹ s⁻¹
same,Km,N[C@@H](Cc1ccccc1)C(=O)O; other: enzyme T415G,55 ± 14 µM
same,kcat,N[C@@H](Cc1ccccc1)C(=O)O; other: enzyme T415G,0.202 ± 0.11 s⁻¹
same,kcat/Km,N[C@@H](Cc1ccccc1)C(=O)O; other: enzyme T415G,3510 ± 1130 M⁻¹ s⁻¹
yPheRS_naph variant (Saccharomyces cerevisiae S288C; N412G/S418C/S437F/T415G),Km,[5]; other: enzyme naph,2030 ± 691 µM
same,kcat,[5]; other: enzyme naph,0.03 ± 0.018 s⁻¹
same,kcat/Km,[5]; other: enzyme naph,14.5 ± 4.22 M⁻¹ s⁻¹
same,Km,[6]; other: enzyme naph,1424 ± 597 µM
same,kcat,[6]; other: enzyme naph,0.0035 ± 0.0009 s⁻¹
same,kcat/Km,[6]; other: enzyme naph,2.52 ± 0.44 M⁻¹ s⁻¹
same,Km,N[C@@H](Cc1ccccc1)C(=O)O; other: enzyme naph,11010 ± 2688 µM
same,kcat,N[C@@H](Cc1ccccc1)C(=O)O; other: enzyme naph,0.0095 ± 0.0021 s⁻¹
same,kcat/Km,N[C@@H](Cc1ccccc1)C(=O)O; other: enzyme naph,0.855 ± 0.007 M⁻¹ s⁻¹
wild type yPheRS (Saccharomyces cerevisiae S288C) (protein) MSDFQLEILKKLDELDEIKSTLATFPQHGSQDVLSALNSLKAHNKLEFSKVDTVTYDLTKEGAQILNEGSYEIKLVKLIQELGQLQIKDVMSKLGPQVGKVGQARAFKNGWIAKNASNELELSAKLQNTDLNELTDETQSILAQIKNNSHLDSIDAKILNDLKKRKLIAQGKITDFNVTKGPEFSTDLTKLETDLTSDMVSTNAYKDLKFKPYNFNSQGVQISSGALHPLNKVREEFRQIFFSMGFTEMPSNQYVETGFWNFDALYVPQQHPARDLQDTFYIKDPLTADLPDDKTYMDNIKAVHEQGRFGSIGYRYNWKPEECQKLVLRTHSTAISARMLHDLAKDPKPTRLFSIDRVFRNEAVDATHLAEFHQVEGVLADYNITLGDLIKFMEEFFERMGVTGLRFKPTYNPYTEPSMEIFSWHEGLQKWVEIGNSGMFRPEMLESMGLPKDLRVLGWGLSLERPTMIKYKVQNIRELLGHKVSLDFIETNPAARLDEDLYE,Km,[7],3.85 ± 0.99 µM
same,kcat,[7],0.181 ± 0.011 s⁻¹
same,kcat/Km,[7],51000 ± 22700 M⁻¹ s⁻¹

# From patent US8980581B2, “Site-specific incorporation of amino acids into molecules” (California Institute of Technology, priority 2006, dated 2015)
